The target of test [1] is human vasopressin receptor 2 (3HA-hV2R) (human) (UniProt P30518).
In test [2] the target is human cannabinoid receptor 1 (pplss-3HA-hCB1) (human) (UniProt P21554).
The target in test [3] is human cannabinoid receptor 2 (3HA-hCB2) (human) (UniProt P34972).
The target of test [4] is human cannabinoid receptor 1 (pplss-3HA-hCB1) (human) (UniProt P21554). This is another data set of the same source.
For test [5], the target named is human cannabinoid receptor 2 (3HA-hCB2) (human) (UniProt P34972). This is another data set of the same source.
Test [6] deals with human D2 dopamine receptor (3HA-hD2R) (human) (UniProt P14416).
Test [7] has as its target human vasopressin receptor 2 (3HA-hV2R) (human) (UniProt P30518). This is another data set of the same source.
For a further test, the target named is T1, CB2 (hCB2) (Homo sapiens, UniProt P34972).
T1 construct: gene CNR2; 3HA-hCB2 in pEF4a: N-terminal 3xHA tag, untagged C-terminus; transient in HEK-293 with Rluc8-arrestin and mem-linker-Citrine reporters
Description: BRET human β-arrestin-2 plasma membrane translocation. It is filed as cell-based. The note with it: read-out: CB2 / logEC50 ± SEM (converted). In general terms: In BRET a luciferase serves as donor, and the signal depends on an acceptor being close.

Read-outs that look alike come from different tables or passages of the source.

Sequence of bovine β-arrestin-1 (Rluc8-bβ-arrestin-1-Sp1) (P17870 whole entry): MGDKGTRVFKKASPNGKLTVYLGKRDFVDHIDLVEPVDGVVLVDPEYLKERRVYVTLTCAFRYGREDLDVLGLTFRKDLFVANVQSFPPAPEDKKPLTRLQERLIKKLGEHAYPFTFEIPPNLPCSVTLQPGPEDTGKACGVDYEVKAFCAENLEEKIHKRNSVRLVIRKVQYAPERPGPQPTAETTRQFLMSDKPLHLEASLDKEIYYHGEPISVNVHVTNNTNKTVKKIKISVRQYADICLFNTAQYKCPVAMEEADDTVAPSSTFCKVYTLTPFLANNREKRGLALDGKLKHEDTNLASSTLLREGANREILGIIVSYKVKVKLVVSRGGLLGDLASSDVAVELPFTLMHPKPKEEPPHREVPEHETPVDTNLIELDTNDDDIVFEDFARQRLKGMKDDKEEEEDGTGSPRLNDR
Sequence of human cannabinoid receptor 2 (3HA-hCB2) (human) (P34972 whole entry): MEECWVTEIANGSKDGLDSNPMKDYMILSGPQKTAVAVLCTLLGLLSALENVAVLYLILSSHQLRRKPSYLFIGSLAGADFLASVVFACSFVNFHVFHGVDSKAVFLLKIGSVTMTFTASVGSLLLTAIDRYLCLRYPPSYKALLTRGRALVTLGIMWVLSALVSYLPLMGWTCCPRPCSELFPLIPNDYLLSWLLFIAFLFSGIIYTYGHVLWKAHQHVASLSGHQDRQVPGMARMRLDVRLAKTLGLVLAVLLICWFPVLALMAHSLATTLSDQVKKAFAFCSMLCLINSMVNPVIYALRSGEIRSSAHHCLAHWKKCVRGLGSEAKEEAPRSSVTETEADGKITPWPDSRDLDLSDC
Sequence of human cannabinoid receptor 1 (pplss-3HA-hCB1) (human) (P21554 whole entry): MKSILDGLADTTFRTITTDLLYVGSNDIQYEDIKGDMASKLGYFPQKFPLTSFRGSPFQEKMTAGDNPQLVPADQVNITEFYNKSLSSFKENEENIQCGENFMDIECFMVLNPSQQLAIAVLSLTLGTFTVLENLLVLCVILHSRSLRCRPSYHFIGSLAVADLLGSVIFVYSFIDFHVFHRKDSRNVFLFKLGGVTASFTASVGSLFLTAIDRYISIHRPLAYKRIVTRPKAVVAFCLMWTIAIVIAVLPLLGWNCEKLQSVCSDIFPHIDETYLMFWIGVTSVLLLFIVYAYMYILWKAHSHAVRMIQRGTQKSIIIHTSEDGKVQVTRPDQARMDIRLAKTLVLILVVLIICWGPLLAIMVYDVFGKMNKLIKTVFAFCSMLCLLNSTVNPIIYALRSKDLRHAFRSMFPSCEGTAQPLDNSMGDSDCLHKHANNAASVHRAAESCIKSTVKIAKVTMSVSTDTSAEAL
Sequence of human β-arrestin-2 (Rluc8-hβ-arrestin-2-Sp1) (P32121 whole entry): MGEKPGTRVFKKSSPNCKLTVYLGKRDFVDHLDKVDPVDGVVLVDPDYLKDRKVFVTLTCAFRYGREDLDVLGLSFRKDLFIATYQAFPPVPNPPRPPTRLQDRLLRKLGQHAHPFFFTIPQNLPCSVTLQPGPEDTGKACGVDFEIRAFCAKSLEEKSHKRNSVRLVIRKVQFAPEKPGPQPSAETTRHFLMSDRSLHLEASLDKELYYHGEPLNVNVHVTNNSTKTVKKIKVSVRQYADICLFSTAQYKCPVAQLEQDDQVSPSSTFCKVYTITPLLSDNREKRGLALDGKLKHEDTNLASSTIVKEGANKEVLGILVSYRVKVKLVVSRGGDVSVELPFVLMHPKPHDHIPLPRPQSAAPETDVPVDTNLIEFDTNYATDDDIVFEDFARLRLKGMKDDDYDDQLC
Sequence of human D2 dopamine receptor (3HA-hD2R) (human) (P14416 whole entry): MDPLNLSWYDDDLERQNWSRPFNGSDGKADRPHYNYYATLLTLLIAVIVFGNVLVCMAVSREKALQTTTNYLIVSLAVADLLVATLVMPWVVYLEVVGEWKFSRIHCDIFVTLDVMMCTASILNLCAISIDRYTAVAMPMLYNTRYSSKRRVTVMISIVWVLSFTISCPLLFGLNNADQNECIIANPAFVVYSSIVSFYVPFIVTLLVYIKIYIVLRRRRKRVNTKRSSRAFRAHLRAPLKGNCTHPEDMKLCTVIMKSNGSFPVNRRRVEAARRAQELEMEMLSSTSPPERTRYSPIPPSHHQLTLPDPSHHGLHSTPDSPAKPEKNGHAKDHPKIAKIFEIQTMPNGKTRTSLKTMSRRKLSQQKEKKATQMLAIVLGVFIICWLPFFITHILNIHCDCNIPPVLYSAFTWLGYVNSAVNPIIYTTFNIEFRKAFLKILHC
T1 sequence (P34972 whole entry): as the sequence (P34972 whole entry) above

Turning to “human β-arrestin-2 (Rluc8-hβ-arrestin-2-Sp1) (from UniProt P32121 1-409) (natural protein)”, the Emax, arrestin translocation to the plasma membrane (BRET, AUC of 25 min); agonist AVP in test [1] is 306 ΔBRET.sec. In test [2], the Emax, arrestin translocation to the plasma membrane (BRET, AUC of 25 min); agonist 2-AG is 236 ΔBRET.sec; the Emax, arrestin translocation to the plasma membrane (BRET, AUC of 25 min); agonist 2-AG; GRK2 co-expressed was 150 ΔBRET.sec; the Emax, arrestin translocation to the plasma membrane (BRET, AUC of 25 min); agonist AEA was 47.9 ΔBRET.sec; the Emax, arrestin translocation to the plasma membrane (BRET, AUC of 25 min); agonist CP55,940 is 83.7 ΔBRET.sec. For the same molecule, in test [2], the Emax, arrestin translocation to the plasma membrane (BRET, AUC of 25 min); agonist CP55,940; GRK2 co-expressed is 120 ΔBRET.sec; the Emax, arrestin translocation to the plasma membrane (BRET, AUC of 25 min); agonist WIN55,212-2 is 164 ΔBRET.sec; the efficacy at 10 μM BAY (NA, not active; no curve could be fitted), arrestin translocation to the plasma membrane (BRET, AUC of 25 min) is 15.3 ΔBRET.sec; the efficacy at 10 μM THC (NA, not active; no curve could be fitted), arrestin translocation to the plasma membrane (BRET, AUC of 25 min) is 5.9 ΔBRET.sec. In test [3], the Emax, arrestin translocation to the plasma membrane (BRET, AUC of 25 min); agonist 2-AG was 31.3 ΔBRET.sec; the Emax, arrestin translocation to the plasma membrane (BRET, AUC of 25 min); agonist 2-AG; GRK2 co-expressed is 68.7 ΔBRET.sec; the Emax, arrestin translocation to the plasma membrane (BRET, AUC of 25 min); agonist CP55,940 was 37.4 ΔBRET.sec; the Emax, arrestin translocation to the plasma membrane (BRET, AUC of 25 min); agonist CP55,940; GRK2 co-expressed was 70.4 ΔBRET.sec. Also, in test [3], the Emax, arrestin translocation to the plasma membrane (BRET, AUC of 25 min); agonist JWH-015 is 34 ΔBRET.sec; the Emax, arrestin translocation to the plasma membrane (BRET, AUC of 25 min); agonist JWH-133 was 37.8 ΔBRET.sec; the Emax, arrestin translocation to the plasma membrane (BRET, AUC of 25 min); agonist WIN55,212-2 was 24.4 ΔBRET.sec; the efficacy at 10 μM THC (NA, not active; no curve could be fitted), arrestin translocation to the plasma membrane (BRET, AUC of 25 min) was -3.8 ΔBRET.sec.

As for “bovine β-arrestin-1 (Rluc8-bβ-arrestin-1-Sp1) (from UniProt P17870 1-418) (natural protein)”, in test [4], the Response, arrestin translocation to the plasma membrane (BRET, AUC of 25 min); 1 μM CP55,940 (significantly different from vehicle) is 20.8 ΔBRET.sec; the Response, arrestin translocation to the plasma membrane (BRET, AUC of 25 min); 1 μM CP55,940; GRK2 co-expressed (significantly different from vehicle) was 44.4 ΔBRET.sec; the Response, arrestin translocation to the plasma membrane (BRET, AUC of 25 min); 10 μM AEA (no significant response) was 6.9 ΔBRET.sec; the Response, arrestin translocation to the plasma membrane (BRET, AUC of 25 min); 10 μM BAY (no significant response) was 0.7 ΔBRET.sec. Further, in test [4], the Response, arrestin translocation to the plasma membrane (BRET, AUC of 25 min); 10 μM THC (no significant response) is 6.5 ΔBRET.sec; the Response, arrestin translocation to the plasma membrane (BRET, AUC of 25 min); 10 μM WIN55,212-2 (significantly different from vehicle) was 48.5 ΔBRET.sec; the Response, arrestin translocation to the plasma membrane (BRET, AUC of 25 min); 31.6 μM 2-AG (significantly different from vehicle) is 33.7 ΔBRET.sec; the Response, arrestin translocation to the plasma membrane (BRET, AUC of 25 min); 31.6 μM 2-AG; GRK2 co-expressed (significantly different from vehicle) was 49.1 ΔBRET.sec. Besides, in test [5], the Response, arrestin translocation to the plasma membrane (BRET, AUC of 25 min); 1 μM CP55,940 (significantly different from vehicle) was 21.5 ΔBRET.sec; the Response, arrestin translocation to the plasma membrane (BRET, AUC of 25 min); 1 μM CP55,940; GRK2 co-expressed (significantly different from vehicle) is 29 ΔBRET.sec; the Response, arrestin translocation to the plasma membrane (BRET, AUC of 25 min); 10 μM JWH-015 (not significantly different from vehicle) is 14.2 ΔBRET.sec; the Response, arrestin translocation to the plasma membrane (BRET, AUC of 25 min); 10 μM JWH-133 (not significantly different from vehicle) was 7.4 ΔBRET.sec. In test [5], the Response, arrestin translocation to the plasma membrane (BRET, AUC of 25 min); 10 μM THC (not significantly different from vehicle) is 10.8 ΔBRET.sec; the Response, arrestin translocation to the plasma membrane (BRET, AUC of 25 min); 10 μM WIN55,212-2 (significantly different from vehicle) was 22.2 ΔBRET.sec; the Response, arrestin translocation to the plasma membrane (BRET, AUC of 25 min); 31.6 μM 2-AG (not significantly different from vehicle) was 14.2 ΔBRET.sec; the Response, arrestin translocation to the plasma membrane (BRET, AUC of 25 min); 31.6 μM 2-AG; GRK2 co-expressed (significantly different from vehicle) was 17.5 ΔBRET.sec. Moreover, in test [6], the Response, arrestin translocation to the plasma membrane (BRET, AUC of 25 min); 10 μM dopamine is 23.4 ΔBRET.sec and the Response, arrestin translocation to the plasma membrane (BRET, AUC of 25 min); 10 μM dopamine; GRK2 co-expressed was 95 ΔBRET.sec. Moreover, in test [7], the Emax, arrestin translocation to the plasma membrane (BRET, AUC of 25 min); agonist AVP is 177 ΔBRET.sec.

`CCCCC/C=C\C/C=C\C/C=C\C/C=C\CCCC(=O)OC(CO)CO` [2-AG]: on CB2 (hCB2), the EC50 was 1860 nM.

(Values after article PMC6468047, “Cannabinoid CB1 and CB2 Receptor-Mediated Arrestin Translocation: Species, Subtype, and Agonist-Dependence” (Frontiers in Pharmacology, 2019).)
